Residue numbers refer to the chain shown, from its start.

Consider 3 molecules from publication PMC8808741.

The target in series [1] is FX (UniProt P00742;P00742 41-179;183-488). The series is described as follows: filter binding.
In series [2] the target is T1, modified FV (B-domain-truncated factor V) (human, UniProt P12259 29-838+1520-2224, R737Q;R1573Q;internal_change). The series is described as follows: filter binding.
In series [3] the target is FXa (UniProt P00742;P00742 41-179;235-488). The series is described as follows: filter binding.
Chain of FXa (P00742 41-179, chain 1 of 2): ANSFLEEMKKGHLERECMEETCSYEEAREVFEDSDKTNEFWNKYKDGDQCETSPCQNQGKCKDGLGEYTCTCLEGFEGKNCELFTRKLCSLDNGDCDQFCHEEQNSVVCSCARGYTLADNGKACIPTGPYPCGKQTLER
Chain of FXa (P00742 235-488, chain 2 of 2): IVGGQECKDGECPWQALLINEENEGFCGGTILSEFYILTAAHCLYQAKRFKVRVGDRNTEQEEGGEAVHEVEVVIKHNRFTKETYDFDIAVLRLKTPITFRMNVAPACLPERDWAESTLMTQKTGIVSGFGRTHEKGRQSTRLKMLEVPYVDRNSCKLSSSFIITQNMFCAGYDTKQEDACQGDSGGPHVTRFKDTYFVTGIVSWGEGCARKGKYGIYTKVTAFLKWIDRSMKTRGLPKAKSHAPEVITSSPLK
Series [4] concerns the target FVIII (UniProt P00451 20-2351). The series is described as follows: filter binding.
Series [5] has as its target prothrombin (FII) (UniProt P00734 44-622). The series is described as follows: filter binding.
In series [6] the target is thrombin (FIIa) (UniProt P00734;P00734 315-363;364-622). The series can be described thus: filter binding.
For series [7], the target named is T2, FVa (activated factor V) (human, UniProt P12259;P12259 29-737;1574-2224). The series is described as follows: filter binding.
Series [8] deals with FVa heavy chain (UniProt P12259 29-737). The series is described as follows: SPR. (In general: SPR reads the build-up and loss of mass on a sensor chip optically.)
In series [9] the target is FVa light chain (UniProt P12259 1574-2224). The series can be described thus: SPR.
The target in series [10] is T1, modified FV (B-domain-truncated factor …). The series is described as follows: SPR.
The target in series [11] is T2, FVa (activated factor V). The series can be described thus: SPR.
The target in series [12] is T2, FVa (activated factor V). The series can be described thus: filter binding. This is another data set of the same source.

Chain of FVIII (P00451 20-2351): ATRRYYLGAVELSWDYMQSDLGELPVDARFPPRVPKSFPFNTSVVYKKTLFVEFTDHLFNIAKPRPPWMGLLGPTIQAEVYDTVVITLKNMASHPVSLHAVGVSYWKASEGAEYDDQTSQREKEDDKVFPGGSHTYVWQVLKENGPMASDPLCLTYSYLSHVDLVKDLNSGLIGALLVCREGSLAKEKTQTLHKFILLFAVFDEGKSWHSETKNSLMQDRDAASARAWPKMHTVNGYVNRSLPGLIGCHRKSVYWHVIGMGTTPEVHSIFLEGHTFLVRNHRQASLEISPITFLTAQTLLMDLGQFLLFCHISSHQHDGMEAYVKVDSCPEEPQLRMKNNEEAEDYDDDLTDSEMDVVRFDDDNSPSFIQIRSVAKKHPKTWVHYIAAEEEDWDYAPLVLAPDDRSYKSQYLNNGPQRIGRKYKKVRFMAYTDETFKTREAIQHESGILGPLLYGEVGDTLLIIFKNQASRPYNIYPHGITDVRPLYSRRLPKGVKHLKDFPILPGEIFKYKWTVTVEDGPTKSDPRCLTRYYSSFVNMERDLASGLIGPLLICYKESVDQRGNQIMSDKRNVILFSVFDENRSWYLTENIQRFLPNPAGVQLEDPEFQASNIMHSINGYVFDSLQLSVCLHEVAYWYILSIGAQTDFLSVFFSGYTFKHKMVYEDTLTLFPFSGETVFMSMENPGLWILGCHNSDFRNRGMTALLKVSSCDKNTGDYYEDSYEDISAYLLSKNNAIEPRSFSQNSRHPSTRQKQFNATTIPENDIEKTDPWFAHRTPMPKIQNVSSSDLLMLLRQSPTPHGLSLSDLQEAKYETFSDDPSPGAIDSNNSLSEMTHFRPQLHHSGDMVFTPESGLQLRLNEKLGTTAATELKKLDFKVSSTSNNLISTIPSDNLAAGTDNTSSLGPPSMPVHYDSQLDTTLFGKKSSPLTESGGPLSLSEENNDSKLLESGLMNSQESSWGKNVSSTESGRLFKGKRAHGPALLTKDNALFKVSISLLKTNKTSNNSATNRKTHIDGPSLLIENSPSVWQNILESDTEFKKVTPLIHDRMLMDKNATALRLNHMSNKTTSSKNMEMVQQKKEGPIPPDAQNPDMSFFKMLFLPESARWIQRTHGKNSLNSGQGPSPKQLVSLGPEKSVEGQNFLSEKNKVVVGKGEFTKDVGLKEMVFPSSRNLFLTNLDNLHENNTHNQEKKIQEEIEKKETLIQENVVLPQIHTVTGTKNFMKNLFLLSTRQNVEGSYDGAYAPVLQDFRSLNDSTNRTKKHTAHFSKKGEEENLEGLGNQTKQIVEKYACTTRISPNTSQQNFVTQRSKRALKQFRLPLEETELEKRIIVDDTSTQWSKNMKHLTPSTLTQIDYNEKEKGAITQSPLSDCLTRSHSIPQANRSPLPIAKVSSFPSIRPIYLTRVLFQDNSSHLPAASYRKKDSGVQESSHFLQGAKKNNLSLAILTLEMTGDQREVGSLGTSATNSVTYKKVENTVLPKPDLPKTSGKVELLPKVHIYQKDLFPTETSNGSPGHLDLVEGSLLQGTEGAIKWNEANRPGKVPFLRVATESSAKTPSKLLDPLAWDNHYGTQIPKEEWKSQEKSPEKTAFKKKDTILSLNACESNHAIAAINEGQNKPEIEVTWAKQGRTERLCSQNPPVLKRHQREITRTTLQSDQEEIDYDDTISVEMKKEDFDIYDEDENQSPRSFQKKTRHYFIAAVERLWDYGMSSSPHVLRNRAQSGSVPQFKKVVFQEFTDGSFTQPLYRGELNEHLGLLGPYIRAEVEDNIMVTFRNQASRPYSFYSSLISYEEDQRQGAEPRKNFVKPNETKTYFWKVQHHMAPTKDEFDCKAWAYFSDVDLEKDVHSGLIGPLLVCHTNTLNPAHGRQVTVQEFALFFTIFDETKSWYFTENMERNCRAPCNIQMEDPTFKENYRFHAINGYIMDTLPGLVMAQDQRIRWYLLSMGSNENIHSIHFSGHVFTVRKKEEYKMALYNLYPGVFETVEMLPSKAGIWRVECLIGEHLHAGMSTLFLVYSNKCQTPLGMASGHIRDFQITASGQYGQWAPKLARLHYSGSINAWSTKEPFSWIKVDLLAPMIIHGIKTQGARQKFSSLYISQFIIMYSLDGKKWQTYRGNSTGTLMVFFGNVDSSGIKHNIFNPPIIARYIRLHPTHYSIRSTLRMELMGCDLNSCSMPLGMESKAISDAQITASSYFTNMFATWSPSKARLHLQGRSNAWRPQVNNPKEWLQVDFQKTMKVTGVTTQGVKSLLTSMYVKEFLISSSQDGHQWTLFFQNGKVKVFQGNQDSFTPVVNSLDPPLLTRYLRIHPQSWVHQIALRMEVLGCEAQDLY
Chain of FX (P00742 41-179, chain 1 of 2): as the sequence (P00742 41-179, chain 1 of 2) above
Chain of FX (P00742 183-488, chain 2 of 2): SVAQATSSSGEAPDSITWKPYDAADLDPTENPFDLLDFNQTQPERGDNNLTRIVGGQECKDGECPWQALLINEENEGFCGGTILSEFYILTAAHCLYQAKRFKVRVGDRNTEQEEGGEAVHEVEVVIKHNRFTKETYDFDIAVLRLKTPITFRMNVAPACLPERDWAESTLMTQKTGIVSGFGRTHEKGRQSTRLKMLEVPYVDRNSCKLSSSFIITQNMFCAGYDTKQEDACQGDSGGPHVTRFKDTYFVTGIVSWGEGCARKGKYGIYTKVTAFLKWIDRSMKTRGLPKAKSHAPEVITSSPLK

B1: T18.3 (structured_RNA)
RNA: GGACUUGGAUAACCUCACCGCAAUGGCGGCUUGUCAGACGACUCGCUGAGGAUCCGAG
modifications: all C and U 2'-fluoro
As a reminder, the Kd is the free concentration of one partner at which half of the binding sites on the other are occupied at equilibrium, for simple one-to-one binding. The low end stands for higher affinity, the high end for lower affinity. Turning to B1, the binding result in series [1], in series [3], in series [4], in series [5] and in [6] was “no binding” each time. Further, the results for the Kd in [2] and in series [7] were 28 nM and 0.99 nM, respectively.

B2: T18.3-Bio (structured_RNA)
RNA: B1 RNA
modifications: all C and U 2'-fluoro
For B2, the Kd in [8] was 113 ± 43 nM; in series [9], 3.33 ± 0.69 nM; in [10] it was 11.4 ± 3 nM; in [11], 4.73 ± 0.69 nM.

B3: Mut1 (structured_RNA)
RNA: B1 RNA with C30A, U31G, U32G
modifications: all C and U 2'-fluoro
Consider B3, for which the values for the dissociation constant Kd in series [2] and in [12] were 410 ± 46 nM and 359 ± 323 nM, respectively.
